What all share (assay): Kinase profiling (radiometric filter-binding)
Holding throughout (type): biochemical

In one data set the target is CK1δ (Homo sapiens, UniProt P48730). Conditions: 1 µM inhibitor, read-out: Residual activity, %. The method, boiled down: (§1)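 Percent activity retained relative to the no-inhibitor reaction is given. Assays used human enzymes, radiolabel filter capture, ATP concentrations not exceeding the respective KM, and a final inhibitor level of 1 µM.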
In another data set the target is EF2K (Homo sapiens, UniProt O00418). The conditions noted are these: 1 µM inhibitor, read-out: Residual activity, %. The method, boiled down:
as §1

The next data set has as its target T1, CHK1 (Homo sapiens, UniProt O14757).
T1 sequence (O14757 1-476): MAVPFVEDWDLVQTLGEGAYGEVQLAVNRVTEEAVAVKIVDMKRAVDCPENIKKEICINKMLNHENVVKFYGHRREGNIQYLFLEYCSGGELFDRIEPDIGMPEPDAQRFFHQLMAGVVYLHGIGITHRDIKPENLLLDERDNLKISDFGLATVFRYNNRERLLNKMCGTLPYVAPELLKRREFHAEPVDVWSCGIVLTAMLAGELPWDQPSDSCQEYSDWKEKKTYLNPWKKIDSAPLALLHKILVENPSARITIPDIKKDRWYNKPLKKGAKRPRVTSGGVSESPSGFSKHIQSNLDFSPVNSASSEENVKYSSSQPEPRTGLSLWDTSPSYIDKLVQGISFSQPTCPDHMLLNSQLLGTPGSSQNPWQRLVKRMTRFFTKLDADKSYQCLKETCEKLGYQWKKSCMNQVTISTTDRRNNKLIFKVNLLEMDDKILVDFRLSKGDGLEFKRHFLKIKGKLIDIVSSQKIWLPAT
The conditions noted are these: CHK1, 1 µM inhibitor; read-out: Residual activity, %. The gist of the method: as §1

For another data set, the target named is T2, ZAP70 (Homo sapiens, UniProt P43403).
T2 sequence (P43403 1-619): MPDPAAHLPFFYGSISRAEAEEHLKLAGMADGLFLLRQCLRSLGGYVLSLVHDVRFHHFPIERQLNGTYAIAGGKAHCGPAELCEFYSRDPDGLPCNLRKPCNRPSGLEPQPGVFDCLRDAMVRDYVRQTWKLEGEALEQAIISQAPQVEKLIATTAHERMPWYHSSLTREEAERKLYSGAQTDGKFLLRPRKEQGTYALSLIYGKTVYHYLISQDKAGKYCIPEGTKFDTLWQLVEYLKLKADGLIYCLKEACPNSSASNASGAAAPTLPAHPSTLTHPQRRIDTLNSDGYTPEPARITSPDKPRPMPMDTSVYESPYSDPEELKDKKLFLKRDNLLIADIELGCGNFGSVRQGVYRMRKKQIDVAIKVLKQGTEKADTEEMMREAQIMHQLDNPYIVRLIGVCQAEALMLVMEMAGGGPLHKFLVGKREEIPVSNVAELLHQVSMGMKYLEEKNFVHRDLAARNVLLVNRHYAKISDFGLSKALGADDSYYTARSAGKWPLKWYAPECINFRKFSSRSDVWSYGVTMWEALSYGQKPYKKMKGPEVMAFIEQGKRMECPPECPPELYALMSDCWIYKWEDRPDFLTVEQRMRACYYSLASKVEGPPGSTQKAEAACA
The conditions noted are these: ZAP70, 1 µM inhibitor; read-out: Residual activity, %. The gist of the method:
as §1

Another data set deals with PAK4 (Homo sapiens, UniProt O96013). The conditions noted are these: PAK4, 1 µM inhibitor; read-out: Residual activity, %. The gist of the method: as §1
Sequence of PAK4 (O96013 whole entry): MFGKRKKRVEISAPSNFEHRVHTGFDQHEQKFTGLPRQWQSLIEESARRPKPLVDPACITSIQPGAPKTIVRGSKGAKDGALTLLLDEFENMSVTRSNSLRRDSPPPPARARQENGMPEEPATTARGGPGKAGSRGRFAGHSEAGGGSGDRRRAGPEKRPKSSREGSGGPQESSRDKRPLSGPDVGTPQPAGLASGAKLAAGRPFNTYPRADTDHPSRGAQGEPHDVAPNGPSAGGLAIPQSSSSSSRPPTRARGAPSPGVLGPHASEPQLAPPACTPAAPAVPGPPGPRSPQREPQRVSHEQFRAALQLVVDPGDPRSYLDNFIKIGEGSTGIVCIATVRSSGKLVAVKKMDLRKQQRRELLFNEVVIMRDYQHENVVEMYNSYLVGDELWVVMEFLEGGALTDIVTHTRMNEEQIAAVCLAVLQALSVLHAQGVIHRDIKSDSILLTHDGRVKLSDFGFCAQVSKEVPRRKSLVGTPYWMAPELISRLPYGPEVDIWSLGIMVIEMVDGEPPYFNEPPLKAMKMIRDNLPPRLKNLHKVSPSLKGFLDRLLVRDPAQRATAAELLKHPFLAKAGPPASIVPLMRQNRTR
A further data set addresses CDK2-Cyclin A (Homo sapiens, UniProt P24941). Conditions: 1 µM inhibitor, read-out: Residual activity, %. The method, boiled down: as §1
The target of a further data set is T3, NEK2 (Homo sapiens, UniProt P51955).
T3 sequence (P51955 1-445): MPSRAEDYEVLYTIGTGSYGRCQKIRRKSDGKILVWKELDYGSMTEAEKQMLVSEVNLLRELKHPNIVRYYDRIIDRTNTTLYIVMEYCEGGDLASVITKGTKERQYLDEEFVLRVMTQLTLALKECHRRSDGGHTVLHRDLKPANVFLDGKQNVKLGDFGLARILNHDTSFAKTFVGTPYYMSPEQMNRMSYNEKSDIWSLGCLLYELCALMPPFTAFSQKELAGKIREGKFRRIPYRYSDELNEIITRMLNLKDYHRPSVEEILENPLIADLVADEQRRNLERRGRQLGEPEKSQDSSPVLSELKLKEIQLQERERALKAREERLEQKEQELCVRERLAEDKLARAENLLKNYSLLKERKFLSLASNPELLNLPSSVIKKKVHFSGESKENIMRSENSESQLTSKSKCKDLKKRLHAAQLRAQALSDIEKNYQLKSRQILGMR
Conditions: NEK2 (letter lost), 1 µM inhibitor; read-out: Residual activity, %. The gist of the method: as §1

In the next data set the target is T4, SGK1 (Homo sapiens, UniProt O00141).
T4 sequence (O00141 1-431): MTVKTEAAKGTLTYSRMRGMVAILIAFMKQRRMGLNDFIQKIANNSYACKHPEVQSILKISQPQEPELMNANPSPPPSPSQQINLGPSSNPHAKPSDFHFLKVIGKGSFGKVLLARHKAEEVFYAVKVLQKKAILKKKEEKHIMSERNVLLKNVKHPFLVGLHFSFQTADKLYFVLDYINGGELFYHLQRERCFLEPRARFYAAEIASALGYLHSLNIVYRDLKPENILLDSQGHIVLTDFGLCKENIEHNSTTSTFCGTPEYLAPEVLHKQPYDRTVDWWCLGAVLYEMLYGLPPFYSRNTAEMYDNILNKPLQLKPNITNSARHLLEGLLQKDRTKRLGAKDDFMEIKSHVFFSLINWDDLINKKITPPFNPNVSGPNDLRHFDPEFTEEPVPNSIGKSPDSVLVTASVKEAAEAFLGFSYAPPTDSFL
Conditions: SGK1, 1 µM inhibitor; read-out: Residual activity, %. The method, boiled down: as §1

A further data set deals with MNK2 (Homo sapiens, UniProt Q9HBH9). The conditions noted are these: MNK2, 1 µM inhibitor; read-out: Residual activity, %. The method, boiled down: as §1
Sequence of MNK2 (Q9HBH9 whole entry): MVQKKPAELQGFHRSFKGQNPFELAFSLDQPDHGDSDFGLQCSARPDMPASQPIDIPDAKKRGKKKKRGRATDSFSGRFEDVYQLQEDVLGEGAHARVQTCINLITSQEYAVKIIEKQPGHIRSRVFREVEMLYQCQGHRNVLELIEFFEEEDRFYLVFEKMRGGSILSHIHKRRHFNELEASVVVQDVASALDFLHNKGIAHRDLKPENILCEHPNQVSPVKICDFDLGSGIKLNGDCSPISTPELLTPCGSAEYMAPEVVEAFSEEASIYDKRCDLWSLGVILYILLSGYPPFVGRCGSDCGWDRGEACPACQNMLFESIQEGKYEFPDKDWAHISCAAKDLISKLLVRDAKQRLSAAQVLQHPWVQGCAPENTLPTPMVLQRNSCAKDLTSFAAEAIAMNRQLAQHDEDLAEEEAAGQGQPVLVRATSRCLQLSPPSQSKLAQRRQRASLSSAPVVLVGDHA
The next data set concerns the target NEK6 (Homo sapiens, UniProt Q9HC98). Conditions: NEK6, 1 µM inhibitor; read-out: Residual activity, %. The method, boiled down:
as §1

In another data set the target is MLK1 (Homo sapiens, UniProt P80192). Conditions: MLK1, 1 µM inhibitor; read-out: Residual activity, %. The method, boiled down:
as §1

For the next data set, the target named is SmMLCK (Homo sapiens, UniProt Q15746). Conditions: 1 µM inhibitor, read-out: Residual activity, %. The gist of the method: as §1
Sequence of SmMLCK (Q15746 923-1914): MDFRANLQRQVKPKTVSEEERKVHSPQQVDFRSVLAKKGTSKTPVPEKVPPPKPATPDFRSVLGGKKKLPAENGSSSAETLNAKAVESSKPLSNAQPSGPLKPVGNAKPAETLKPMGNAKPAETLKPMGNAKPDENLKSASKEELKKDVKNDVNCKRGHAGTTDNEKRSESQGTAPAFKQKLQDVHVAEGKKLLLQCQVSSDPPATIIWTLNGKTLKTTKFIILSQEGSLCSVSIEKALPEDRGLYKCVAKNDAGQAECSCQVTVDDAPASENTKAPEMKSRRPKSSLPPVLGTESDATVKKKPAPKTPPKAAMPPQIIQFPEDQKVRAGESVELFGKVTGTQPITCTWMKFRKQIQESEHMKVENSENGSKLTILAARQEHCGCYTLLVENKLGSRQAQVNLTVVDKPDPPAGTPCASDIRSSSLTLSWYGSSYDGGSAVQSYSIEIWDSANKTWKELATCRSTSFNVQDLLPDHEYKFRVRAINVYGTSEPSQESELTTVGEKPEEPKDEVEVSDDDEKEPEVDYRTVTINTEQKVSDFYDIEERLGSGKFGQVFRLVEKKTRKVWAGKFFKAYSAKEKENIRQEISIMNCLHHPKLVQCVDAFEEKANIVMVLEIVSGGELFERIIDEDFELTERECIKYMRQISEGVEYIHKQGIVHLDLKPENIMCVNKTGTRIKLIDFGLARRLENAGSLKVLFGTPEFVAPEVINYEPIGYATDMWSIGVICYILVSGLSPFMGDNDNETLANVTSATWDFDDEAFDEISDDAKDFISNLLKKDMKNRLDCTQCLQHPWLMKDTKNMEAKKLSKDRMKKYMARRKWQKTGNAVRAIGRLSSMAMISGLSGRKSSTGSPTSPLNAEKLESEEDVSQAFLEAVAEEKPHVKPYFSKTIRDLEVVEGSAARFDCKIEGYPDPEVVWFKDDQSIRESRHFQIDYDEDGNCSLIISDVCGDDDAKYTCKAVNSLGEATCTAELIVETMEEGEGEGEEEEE

Square brackets hold non-standard residues; d marks the D form. Peptide text beside a SMILES is read from it. * marks the point of attachment. X3 = O=C(CCCCCNCc1nc2c(sc3cc(Br)cnc32)c(=O)[nH]1)*

Sequence of NEK6 (Q9HC98 whole entry): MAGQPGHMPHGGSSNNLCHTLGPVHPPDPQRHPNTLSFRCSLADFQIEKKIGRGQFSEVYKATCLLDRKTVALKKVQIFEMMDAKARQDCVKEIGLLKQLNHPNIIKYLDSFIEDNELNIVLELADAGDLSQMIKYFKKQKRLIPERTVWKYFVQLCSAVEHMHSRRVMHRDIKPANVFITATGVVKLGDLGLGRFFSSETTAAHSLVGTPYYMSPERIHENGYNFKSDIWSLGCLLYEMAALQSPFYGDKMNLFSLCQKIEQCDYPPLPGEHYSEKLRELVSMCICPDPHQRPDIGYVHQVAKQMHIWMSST
Sequence of CK1δ (P48730 whole entry): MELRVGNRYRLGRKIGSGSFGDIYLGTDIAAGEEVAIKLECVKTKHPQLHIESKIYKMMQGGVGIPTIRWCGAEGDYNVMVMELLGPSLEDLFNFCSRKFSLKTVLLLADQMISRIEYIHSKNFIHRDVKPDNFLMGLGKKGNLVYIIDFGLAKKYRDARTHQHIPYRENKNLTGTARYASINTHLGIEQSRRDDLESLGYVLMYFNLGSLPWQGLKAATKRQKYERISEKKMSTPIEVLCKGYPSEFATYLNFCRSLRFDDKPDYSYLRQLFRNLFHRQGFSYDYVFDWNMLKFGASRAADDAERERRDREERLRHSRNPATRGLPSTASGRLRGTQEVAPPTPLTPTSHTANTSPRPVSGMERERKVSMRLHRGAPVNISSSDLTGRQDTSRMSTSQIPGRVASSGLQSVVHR
Sequence of MLK1 (P80192 whole entry): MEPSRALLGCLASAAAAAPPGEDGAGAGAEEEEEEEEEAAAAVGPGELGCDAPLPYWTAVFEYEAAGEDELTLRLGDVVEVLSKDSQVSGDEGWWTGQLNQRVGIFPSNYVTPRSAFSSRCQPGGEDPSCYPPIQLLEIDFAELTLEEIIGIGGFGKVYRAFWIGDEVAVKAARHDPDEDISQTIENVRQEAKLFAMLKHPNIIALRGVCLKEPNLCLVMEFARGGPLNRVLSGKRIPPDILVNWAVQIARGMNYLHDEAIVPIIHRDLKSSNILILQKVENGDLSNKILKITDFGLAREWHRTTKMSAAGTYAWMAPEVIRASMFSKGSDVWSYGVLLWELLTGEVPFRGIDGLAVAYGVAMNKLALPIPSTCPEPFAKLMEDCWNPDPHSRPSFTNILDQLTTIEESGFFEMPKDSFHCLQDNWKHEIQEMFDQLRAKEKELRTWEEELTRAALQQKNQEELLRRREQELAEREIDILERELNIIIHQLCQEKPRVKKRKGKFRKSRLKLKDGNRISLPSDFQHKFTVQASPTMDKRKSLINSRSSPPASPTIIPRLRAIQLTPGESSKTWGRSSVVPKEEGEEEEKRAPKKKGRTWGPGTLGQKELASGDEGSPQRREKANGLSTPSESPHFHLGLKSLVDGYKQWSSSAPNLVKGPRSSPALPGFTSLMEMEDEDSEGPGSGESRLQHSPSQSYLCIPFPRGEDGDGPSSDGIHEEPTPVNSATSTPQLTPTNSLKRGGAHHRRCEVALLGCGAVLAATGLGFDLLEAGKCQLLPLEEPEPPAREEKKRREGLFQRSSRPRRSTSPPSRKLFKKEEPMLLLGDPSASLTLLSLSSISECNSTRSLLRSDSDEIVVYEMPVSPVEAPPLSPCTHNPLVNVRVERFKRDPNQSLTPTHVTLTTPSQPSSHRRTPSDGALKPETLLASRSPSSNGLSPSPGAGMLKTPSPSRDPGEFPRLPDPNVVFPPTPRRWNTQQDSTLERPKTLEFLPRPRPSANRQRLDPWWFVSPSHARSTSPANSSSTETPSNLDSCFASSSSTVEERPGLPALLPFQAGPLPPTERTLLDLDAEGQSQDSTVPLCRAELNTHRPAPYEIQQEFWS

Take `N=C(N)NCCC[C@@H](NC(=O)CCCCCNC(=O)Cn1cnc2c(I)c(I)c(I)c(I)c21)C(=O)N[C@H](CCCNC(=N)N)C(=O)N[C@H](CCCNC(=N)N)C(=O)N[C@H](CCCNC(=N)N)C(=O)N[C@H](CCCNC(=N)N)C(=O)N[C@H](CCCNC(=N)N)C(=O)N[C@H](CCCCN)C(N)=O` [ARC-3125, TIBI-CH2-C(=O)-Ahx-(D-Arg)6-D-Lys-NH2]: the remaining activity at 1 µM was 71 ± 4% with CK1δ; 103 ± 1% with EF2K; 76 ± 1% in the data set with CHK1; 105 ± 8% with ZAP70; 50 ± 2% with PAK4; 17 ± 1% with CDK2-Cyclin A. Further, the remaining activity at 1 µM in the data set with NEK2 turned out to be 21 ± 3%; with SGK1, 9 ± 5%; with MNK2, 19 ± 4%; with NEK6, 97%; with MLK1, 100 ± 8%; with SmMLCK, 66 ± 1%.

For `N=C(N)NCCC[C@@H](NC(=O)CCCCCNCc1nc2c(sc3cc(Br)cnc32)c(=O)[nH]1)C(=O)N[C@H](CCCNC(=N)N)C(=O)N[C@H](CCCNC(=N)N)C(=O)N[C@H](CCCNC(=N)N)C(=O)N[C@H](CCCNC(=N)N)C(=O)N[C@H](CCCNC(=N)N)C(=O)N[C@H](CCCCN)C(N)=O` [ARC-3126, BPTP-Ahx-(D-Arg)6-D-Lys-NH2] (X3-[dR][dR][dR][dR][dR][dR][dK]-NH2), the remaining activity at 1 µM worked out at 99 ± 1% with CK1δ; 85 ± 10% in the data set with EF2K; 100 ± 6% with CHK1; 83 ± 30% in the data set with ZAP70; 71 ± 42% with PAK4; 106 ± 5% with CDK2-Cyclin A. Also, the remaining activity at 1 µM in the data set with NEK2 came out at 91 ± 2%; with SGK1, 75 ± 9%; in the data set with MNK2, 84 ± 17%; with NEK6, 85 ± 17%; in the data set with MLK1, 122 ± 21%; in the data set with SmMLCK it was 116 ± 39%.

For `N=C(N)NCCC[C@@H](NC(=O)CNC(=O)[C@@H](CCCNC(=N)N)NC(=O)[C@@H](CCCNC(=N)N)NC(=O)CCCCCCCNCc1nc2c(sc3cc(Br)cnc32)c(=O)[nH]1)C(=O)N[C@H](CCCCN)C(N)=O` [Compound 1, BPTP-Aoc-(D-Arg)2-Gly-D-Arg-D-Lys-NH2], the remaining activity at 1 µM with CK1δ was 104 ± 4%; with EF2K, 104 ± 2%; with CHK1, 122 ± 17%; with ZAP70, 95 ± 21%; with PAK4, 91%; with CDK2-Cyclin A, 106 ± 12%. Moreover, the remaining activity at 1 µM stood at 108 ± 5% in the data set with NEK2; 110 ± 19% in the data set with SGK1; 80 ± 3% with MNK2; 107 ± 11% with NEK6; 112 ± 13% in the data set with MLK1; 98 ± 5% with SmMLCK.

With `N=C(N)NCCC[C@@H](NC(=O)CNC(=O)[C@@H](CCCNC(=N)N)NC(=O)[C@@H](CCCNC(=N)N)NC(=O)CCCCCCCNCc1nc2c(sc3ccc(Br)cc32)c(=O)[nH]1)C(=O)N[C@H](CCCCN)C(N)=O` [Compound 2, BBTP-Aoc-(D-Arg)2-Gly-D-Arg-D-Lys-NH2], the remaining activity at 1 µM worked out at 99 ± 3% with CK1δ; 98 ± 7% with EF2K; 112 ± 6% in the data set with CHK1; 87 ± 7% with ZAP70; 98 ± 14% with PAK4; 105 ± 9% in the data set with CDK2-Cyclin A. The remaining activity at 1 µM with NEK2 worked out at 119 ± 12%; in the data set with SGK1 it was 89 ± 3%; with MNK2, 47 ± 2%; in the data set with NEK6, 126 ± 5%; with MLK1, 98 ± 8%; with SmMLCK, 98 ± 9%.

As for `N=C(N)NCCC[C@@H](NC(=O)CNC(=O)[C@@H](CCCNC(=N)N)NC(=O)[C@@H](CCCNC(=N)N)NC(=O)Cn1cc(CNCc2nc3c(sc4ccc(Br)cc43)c(=O)[nH]2)nn1)C(=O)N[C@H](CCCCN)C(N)=O` [Compound 3, BBTP-Amt-(D-Arg)2-Gly-D-Arg-D-Lys-NH2], the remaining activity at 1 µM in the data set with CK1δ amounted to 88 ± 12%; in the data set with EF2K, 102 ± 3%; in the data set with CHK1, 104 ± 2%; in the data set with ZAP70 it was 53 ± 14%; with PAK4, 77 ± 13%; with CDK2-Cyclin A it was 100%. For the same molecule, the remaining activity at 1 µM was 92 ± 1% with NEK2; 95 ± 4% with SGK1; 96 ± 10% with MNK2; 117 ± 23% in the data set with NEK6; 101 ± 9% in the data set with MLK1; 94% with SmMLCK.

The values are drawn from publication PMC8307404, “Crystal Structure-Guided Design of Bisubstrate Inhibitors and Photoluminescent Probes for Protein Kinases of the PIM Family” (Molecules, 2021).
